From patent US20060084135

Molecular target: T1, p53-382 acetylated peptide (Fluor de Lys-SIRT1), RHKK(Ac)
T1 chain: RHKK

B1: recombinant human SIRT1 (protein)
chain: MADEAALALQPGGSPSAAGADREAASSPAGEPLRKRPRRDGPGLERSPGEPGGAAPEREVPAAARGCPGAAAAALWREAEAEAAAAGGEQEAQATAAAGEGDNGPGLQGPSREPPLADNLYDEDDDDEGEEEEEAAAAAIGYRDNLLFGDEIITNGFHSCESDEEDRASHASSSDWTPRPRIGPYTFVQQHLMIGTDPRTILKDLLPETIPPPELDDMTLWQIVINILSEPPKRKKRKDINTIEDAVKLLQECKKIIVLTGAGVSVSCGIPDFRSRDGIYARLAVDFPDLPDPQAMFDIEYFRKDPRPFFKFAKEIYPGQFQPSLCHKFIALSDKEGKLLRNYTQNIDTLEQVAGIQRIIQCHGSFATASCLICKYKVDCEAVRGDIFNQVVPRCPRCPADEPLAIMKPEIVFFGENLPEQFHRAMKYDKDEVDLLIVIGSSLKVRPVALIPSSIPHEVPQILINREPLPHLHFDVELLGDCDVIINELCHRLGGEYAKLCCNPVKLSEITEKPPRTQKELAYLSELPPTPLHVSEDSSSPERTSPPDSSVIVTLLDQAAKSNDDLDVSESKGCMEEKPQEVQTSRNVESIAEQMENPDLKNVGSSTGEKNERTSVAGTVRKCWPNRVAKEQISRRLDGNQYLFLPPNRYIFHGAEVYSDSEDDVLSSSSCGSNSDSGTCQSPSLEEPMEDESEIEEFYNGLEDEPDVPERAGGAGFGTDGDDQEAINEAISVKQEVTDMNYPSNKS
- Km (+100 µM resveratrol), SIRT1 initial rate vs p53-382 acetylated peptide concentration at 3 mM NAD+: Km(+resveratrol, Δ)=1.8 µM
- Km (control), SIRT1 initial rate vs p53-382 acetylated peptide concentration at 3 mM NAD+: Km(control, ▪)=64 µM
- fold decrease of the acetylated peptide Km with 100 µM resveratrol: Its effect on the acetylated peptide Km was particularly striking, amounting to a 35-fold decrease
